Test results reported in paper PMC2270346.

Target: mouse Wnt3a, His-tagged (mouse) (UniProt P27467)
Sequence of UniProt P27467 (P27467 19-352): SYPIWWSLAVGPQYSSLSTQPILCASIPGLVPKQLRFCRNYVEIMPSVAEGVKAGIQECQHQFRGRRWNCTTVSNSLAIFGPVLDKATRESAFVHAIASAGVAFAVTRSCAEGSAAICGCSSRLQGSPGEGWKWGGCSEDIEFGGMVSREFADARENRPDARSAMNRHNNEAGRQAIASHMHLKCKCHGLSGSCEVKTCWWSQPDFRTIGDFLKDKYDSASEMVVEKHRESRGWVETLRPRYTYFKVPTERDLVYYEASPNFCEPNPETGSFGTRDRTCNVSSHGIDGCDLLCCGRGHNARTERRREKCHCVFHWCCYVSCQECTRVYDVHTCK

| suppression of Wnt3a-induced beta-catenin-TCF-regulated transcription (SUPER8XTOPFLASH reporter) in HEK293T and Huh-7 cells cotransfected with Wnt3a | Substance |
| --- | --- |
| > 80% | human FZC18 module, myc-tagged (domain or fragment) |
| > 80% | human V3Nter, V5-tagged (domain or fragment) |
